Experimental findings from article PMC10470531, “RecJ3/4-aRNase J form a Ubl-associated nuclease complex functioning in survival against DNA damage in Haloferax volcanii” (mBio, 2023) are described below.

The target of data set [1] is His6-RecJ3 (H. volcanii) (UniProt D4GVJ5). The data set is described as follows: SEC; HisTrap-bound, Strep-Tactin flow-through fractions from H. volcanii HJ07; Superdex 200 Increase 10/300 GL; 50 mM HEPES pH 7.5, 2 M NaCl, 1 mM DTT, 5 mM MnCl2, 5 mM MgCl2, 10% glycerol; fractions on reducing SDS-PAGE. (In gel filtration, larger molecules generally elute earlier.)
Chain of His6-RecJ3 (H. volcanii) (D4GVJ5 entry or part of it): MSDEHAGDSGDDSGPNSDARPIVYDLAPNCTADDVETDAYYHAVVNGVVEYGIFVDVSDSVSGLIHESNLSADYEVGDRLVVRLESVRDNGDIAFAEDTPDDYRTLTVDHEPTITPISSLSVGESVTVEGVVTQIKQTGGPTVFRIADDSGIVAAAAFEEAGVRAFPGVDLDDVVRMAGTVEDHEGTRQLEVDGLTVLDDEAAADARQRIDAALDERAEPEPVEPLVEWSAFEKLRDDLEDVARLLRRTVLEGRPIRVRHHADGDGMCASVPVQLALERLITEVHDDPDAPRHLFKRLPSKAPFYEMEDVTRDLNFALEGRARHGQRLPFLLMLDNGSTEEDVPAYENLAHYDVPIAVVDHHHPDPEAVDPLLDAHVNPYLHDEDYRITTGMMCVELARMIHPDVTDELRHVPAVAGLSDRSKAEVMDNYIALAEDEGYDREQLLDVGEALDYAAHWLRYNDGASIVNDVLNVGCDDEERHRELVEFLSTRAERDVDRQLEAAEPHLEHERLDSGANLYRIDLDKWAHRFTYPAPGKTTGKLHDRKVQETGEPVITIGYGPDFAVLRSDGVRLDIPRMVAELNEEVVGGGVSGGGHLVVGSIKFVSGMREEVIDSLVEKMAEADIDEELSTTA
The target is the same in data set [2]. The data set is described as follows: affinity purification with mass spectrometry; tandem affinity purification (HisTrap, then Strep-Tactin) of His6-RecJ3 and aRNase J-StrepII from H. volcanii HJ02-pJAM4252 against the empty vector; 2 M NaCl buffers; LC-MS/MS of the liquid fractions and AQUA-based MS/MS (SRM with heavy peptides) for the stoichiometry.
In data set [3] the target is aRNase J-StrepII (H. volcanii) (UniProt D4GW49). Described as above.
Data set [4] deals with the molecule itself. As to the kind of experiment: SEC; aRNase J-StrepII purified by Strep-Tactin from H. volcanii HS01-pJAM1406 (ΔrecJ3); Superdex 200 Increase 10/300 GL; 50 mM HEPES pH 7.5, 2 M NaCl, 1 mM DTT, 5 mM MnCl2, 10% glycerol; column calibrated with mass standards.

For the molecule RecJ4 (natural protein), the stoichiometry N (RecJ4 per RecJ3) in the data set with His6-RecJ3 (H. volcanii) [1] and in the data set with His6-RecJ3 (H. volcanii) [2] was 1 in each case. For the same molecule, the stoichiometry N (RecJ4 per aRNase J) in data set [3] was found to be 2.

B1: aRNase J-StrepII (natural protein, H. volcanii, UniProt D4GW49 1-450, looked up)
chain: MEIEIATIGGYEEVGRQMTAVRAGDDVVVFDMGLNLSQVLIHDNVETEKMHSLDLIDMGAIPDDRVMSDLEGDVQAIVPTHGHLDHIGAISKLAHRYDAPVVATPFTIELVKQQIEGENKFNVNNDLVKMEAGETMSIGDSGNVELEFVHVTHSIIDAINPVVHTPEGAVVYGLDKRMDHSPVLEDPIDMKRFREIGREGNGVLAYIEDCTNAGRKGRTPSESVARRHLKDVMTSVEDYDGGIVATTFSSHISRVSSLVEFAKDIGRQPVLLGRSMEKYSGTAERLGFVDLPDDLGMYGHRKSVDRTFKRIMKEGKENYLPIVTGHQGEPRAMLTRMGRGETPYEIDDGDKVIFSARVIPEPTNEGQRYQSERLLRMQGARIYDEIHVSGHLREEGHYEMLQALQPQHVIPAHQNLKGFAPYVDLAESQGYALGRDLHVTRNGNMIQLVE
notes: archaeal RNase J of Haloferax volcanii, amplified with primers HVO_2724 NdeI and HVO_2724 KpnI; A homodimer when purified from the ΔrecJ3 mutant (SEC); in the RecJ3/4-aRNase J complex the stoichiometry is 2:2:1; also called aRNase J with a C-terminal StrepII tag; aRNase J homodimer; source: H. volcanii H26- or HS01-pJAM1406, HJ02-, HJ04- or HJ07-pJAM4252, in lysate; purified (Strep-Tactin, SEC); …
B1: in data set [4], the stoichiometry N (commonly a count of units in the complex or per binding partner) is 2.
